In patent publication EP1870419A2 (Praecis Pharmaceuticals Incorporated, dated 2000):
Square brackets hold non-standard residues; d marks the D form. dPhe(4-F) = N[C@H](Cc1ccc(F)cc1)C(=O)O

Target: T1, Aβ1-40 peptide (natural β-amyloid peptide, β-AP1-40) (In the fibril binding assay the peptide stood as aged fibrils (many copies, number not stated). In the nucleation assay [CUT])
Test: cell-based or functional assay

Compared with H-[dL][dF][dPhe(4-F)][dV][dL]-NH2 (also: TFA salt) [PPI-1319: TFA·H-(lf-[p-F]f-vl)-NH2], H-[dL][dF][dK][dV][dL]-NH2 (also: TFA salt) [PPI 1321: 2TFA·H-(lfkvl)-NH2] is lower in “Nucleation assay data (Δlag), 0.3 µM compound” value: 1 fold of control lag time for the first, < 1 fold of control lag time for the second.

First: H-[dL][dF][dPhe(4-F)][dV][dL]-NH2 (also: TFA salt) [PPI-1319: TFA·H-(lf-[p-F]f-vl)-NH2]
Second: H-[dL][dF][dK][dV][dL]-NH2 (also: TFA salt) [PPI 1321: 2TFA·H-(lfkvl)-NH2]
The “Nucleation assay data (Δlag), 1 µM compound” value of the first is higher: > 5 fold of control lag time for the first, < 1 fold of control lag time for the second.

First: H-[dL][dF][dPhe(4-F)][dV][dL]-NH2 (also: TFA salt) [PPI-1319: TFA·H-(lf-[p-F]f-vl)-NH2]
Second: H-[dL][dF][dK][dV][dL]-NH2 (also: TFA salt) [PPI 1321: 2TFA·H-(lfkvl)-NH2]
The “Nucleation assay data (Δlag), 3 µM compound” value of the first is higher: > 5 fold of control lag time for the first, < 1 fold of control lag time for the second.

Target: T1, Aβ1-40 peptide (natural β-amyloid …)
Test: cell-based or functional assay
Remark: another data set of the same source

Compared with {N,N‑dimethyl}-G[dA][dF][dF][dV][dL]-NH2 (also: TFA salt) [PPI 803: TFA·N,N-dimethyl-(Gaffvl)-NH2], {N‑isopropyl}-G[dA][dF][dF][dV][dL]-NH2 (also: TFA salt) [PPI 970: TFA·N-isopropyl-(Gaffvl)-NH2] is higher in “Nucleation assay Δlag, 1.25 µM compound” value: < 1 fold of control lag time for the first, 1 fold of control lag time for the second.

H-[dL][dV][dF][dF][dA]-NMe2 (also: TFA salt) [PPI 993: TFA·H-(lvffa)-dimethylamide] and {N,N‑diethyl}-G[dA][dF][dF][dV][dL]-NH2 (also: TFA salt) [PPI 1005: TFA·N,N-diethyl-(Gaffvl)-NH2] are the same in “Nucleation assay Δlag, 1.25 µM compound” value: 1 fold of control lag time for the first, 1 fold of control lag time for the second.

{N,N‑diethyl}-[dA][dF][dF][dV][dL]-NH2 (also: TFA salt) [PPI 1006: TFA·N,N-diethyl-(affvl)-NH,] and {N,N‑dimethyl}-[dA][dF][dF][dV][dL]-NH2 (also: TFA salt) [PPI 913: TFA·N,N-dimethyl-(affvl)-NH2] are the same in “Nucleation assay Δlag, 1.25 µM compound” value: 1 fold of control lag time for the first, 1 fold of control lag time for the second.

{N‑methyl}-G[dA][dF][dF][dV][dL]-NH2 (also: TFA salt) [PPI 968: TFA·N-methyl-(Gaffvl)-NH2] was tested, and the “Nucleation assay Δlag, 1.25 µM compound” value was 2 fold of control lag time.

Compared with {N,N‑dimethyl}-G[dA][dF][dF][dV][dL]-NH2 (also: TFA salt) [PPI 803: TFA·N,N-dimethyl-(Gaffvl)-NH2], {N‑isopropyl}-G[dA][dF][dF][dV][dL]-NH2 (also: TFA salt) [PPI 970: TFA·N-isopropyl-(Gaffvl)-NH2] is higher in “Nucleation assay Δlag, 2.5 µM compound” value: < 1 fold of control lag time for the first, > 5 fold of control lag time for the second.

Going from H-[dL][dV][dF][dF][dA]-NMe2 (also: TFA salt) [PPI 993: TFA·H-(lvffa)-dimethylamide] to {N,N‑diethyl}-G[dA][dF][dF][dV][dL]-NH2 (also: TFA salt) [PPI 1005: TFA·N,N-diethyl-(Gaffvl)-NH2], the “Nucleation assay Δlag, 2.5 µM compound” value rises from 1 fold of control lag time to 3 fold of control lag time.

{N,N‑diethyl}-[dA][dF][dF][dV][dL]-NH2 (also: TFA salt) [PPI 1006: TFA·N,N-diethyl-(affvl)-NH,] and {N,N‑dimethyl}-[dA][dF][dF][dV][dL]-NH2 (also: TFA salt) [PPI 913: TFA·N,N-dimethyl-(affvl)-NH2] are the same in “Nucleation assay Δlag, 2.5 µM compound” value: 1 fold of control lag time for the first, 1 fold of control lag time for the second.

{N‑methyl}-G[dA][dF][dF][dV][dL]-NH2 (also: TFA salt) [PPI 968: TFA·N-methyl-(Gaffvl)-NH2] was tested, and the “Nucleation assay Δlag, 2.5 µM compound” value was > 5 fold of control lag time.

First: {N,N‑dimethyl}-G[dA][dF][dF][dV][dL]-NH2 (also: TFA salt) [PPI 803: TFA·N,N-dimethyl-(Gaffvl)-NH2]
Second: {N‑isopropyl}-G[dA][dF][dF][dV][dL]-NH2 (also: TFA salt) [PPI 970: TFA·N-isopropyl-(Gaffvl)-NH2]
The “Nucleation assay Δlag, 5 µM compound” value of the first is lower: < 1 fold of control lag time for the first, > 5 fold of control lag time for the second.

Compared with H-[dL][dV][dF][dF][dA]-NMe2 (also: TFA salt) [PPI 993: TFA·H-(lvffa)-dimethylamide], {N,N‑diethyl}-G[dA][dF][dF][dV][dL]-NH2 (also: TFA salt) [PPI 1005: TFA·N,N-diethyl-(Gaffvl)-NH2] is higher in “Nucleation assay Δlag, 5 µM compound” value: 1 fold of control lag time for the first, 3 fold of control lag time for the second.

{N,N‑diethyl}-[dA][dF][dF][dV][dL]-NH2 (also: TFA salt) [PPI 1006: TFA·N,N-diethyl-(affvl)-NH,] and {N,N‑dimethyl}-[dA][dF][dF][dV][dL]-NH2 (also: TFA salt) [PPI 913: TFA·N,N-dimethyl-(affvl)-NH2] are the same in “Nucleation assay Δlag, 5 µM compound” value: 1 fold of control lag time for the first, 1 fold of control lag time for the second.

In the case of {N‑methyl}-G[dA][dF][dF][dV][dL]-NH2 (also: TFA salt) [PPI 968: TFA·N-methyl-(Gaffvl)-NH2], the “Nucleation assay Δlag, 5 µM compound” value is reported as > 5 fold of control lag time.
